Measured values from patent US20260242839A1, “GLYCOSIDE PRODUCT BIOSYNTHESIS AND RECOVERY” (Manus Bio Inc., priority 2023, published 2026).
Values joined by “and” are separate entries in the source; they are usually repeats but may differ in a detail not shown here. Identical values can stand only once.

test system: mogrol; assay: primary glycosylation at C3 and C24 hydroxyls of mogrol by cells expressing UGT enzymes; type: cell-based, E. coli; settings: mogrol fed; 37° C., 48 hrs; LCMS/MS
Procedure: Specifically, mogrol was fed to cells expressing various UGT enzymes. Reactions were incubated at 37° C. for 48 hrs. Products were quantified by LCMS/MS with authentic standards of each compound.

| Molecule | C3 O-Glucosylation | C24 O-Glucosylation |
| --- | --- | --- |
| SEQ ID NO: 82: UGT73F24 (Glycyrrhiza uralensis) (protein, listed as Glycyrrhiza sp.) MADVAEEQPLKIYFIPYLAAGHMIPLCDIATLFASRGHHVTIITTPSNAQTLRESHHFRVQTIQFPSQEVGLPAGVQNLTAVTNLDDSYKIYHATMLLRKHIEDFVERDPPDCIVADFLFPWVDDVATKLHIPRLVFNGFTLFTICAMESHKAHPLPVDAASGSFVIPDFPHHVTINSTPPKRTKEFVDPLLTEAFKSHGFLINSFVELDGEECVEHYERITGGHKAWHLGPAFLVHRTAQDRGEKSVVSTQECLSWLDSKRDNSVLYICFGTICYFPDKQLYEIASAIEASGHEFIWVVPEKRGNADESEEEKEKWLPKGFEERNNGKKGMIIRGWAPQVAILGHPAVGGFLTHCGWNSTVEAVSAGVPMITWPVHSDQYFNEKLITQVRGIGVEVGAEEWIVTAFRETEKLVGRDRIERAVRRVMDGGDEAVQIRRRARELGEMARQAVQEGGSSHTNLTALINDLKRWRDSKQLN | No | Yes |
| SEQ ID NO: 83: UGT73C33 (Glycyrrhiza uralensis) (protein, listed as Glycyrrhiza sp.) MAVFQANQPHFVLFPLMAQGHIIPMIDIARLLAQRGAIVTIFTTPKNASRFTSVLSRAVSSGLQIRLVHLHFPSKEAGLPEGCENLDMVASHDMICNIFQAIRMLQKQAEELFETLTPKPSCIISDFCIPWTTQVAEKHHIPRISFHGFSCFCLHCMLKIHTSKVLEGITSESEYFTVPGIPDQIQVTKQQVPGPMIDEMKEFGEQMRDAEIRSYGVIINTFEELEKAYVNDYKKERNGKVWCIGPVSLCNKDGLDKAQRGNKASISEHHCLEWLDLQQPNSVIYVCLGSLCNLTPPQLMELALGLEATKRPFIWVIREGNKFEELEKWISEEGFEERIKGRGLIIRGWAPQVLILSHPSIGGFLTHCGWNSTLEGVTAGVPMVTWPLFADQFLNEKLVTQVLRIGVSLGVDVPLKWGEEEKVGVQVKKEGIEKAICMVMDEGEESKERRERAKELSEMAKRAVEKDGSSHLNMTMLIQDIMQQSSSKVET | No | Yes |
| SEQ ID NO: 81: UGT enzyme (Camelina sativa) (protein, listed as Camelina sativa) MASEKTLQVHPPLHFVLFPFMAQGHMIPMVDIARLLAQRGATVTIVTTRYNAGRFENVLSRAVESGLPINIVHVKFPYEEVGLPKGKENIDSLDSMELMVPFFKAVNMLQDPVVKLMEEMESRPSCIISDLLLPYTSKIAKKFNIPKIVFHGISCFCLLCVHVLRRNLEILTNLKSDKEYFLVPSFPDRVEFTKPQVTVETNASGDWKEFLDEMVEAEDTSYGVIINTFEELEPAYVKDYKDARAGNVWSIGPVSLCNKAGVDKAERGNKATIDQDECLKWLDSKEEGSVLYVCLGSICNLPLVQLKELGLGLEESQRPFIWVIRGWEKYNELSEWMVESGFEERIRERGLLIRGWAPQVLILSHPSVGGFLTHCGWNSTVEGITSGVPLITWPLFGDQFCNQTLVVQVLKAGVSVGVEEVMKWGEEEKIGVLVDKEGVKKAVEDLMGESDDAKERTKRVKELGGLAHKAVEEGGSSHSNITLFLQDIRQVQSV | No | Yes |
| SEQ ID NO: 17: SrUGT85C2 (Stevia rebaudiana) (protein, listed as Stevia rebaudiana) MDAMATTEKKPHVIFIPFPAQSHIKAMLKLAQLLHHKGLQITFVNTDFIHNQFLESSGPHCLDGAPGFRFETIPDGVSHSPEASIPIRESLLRSIETNFLDRFIDLVTKLPDPPTCIISDGFLSVFTIDAAKKLGIPVMMYWTLAACGFMGFYHIHSLIEKGFAPLKDASYLTNGYLDTVIDWVPGMEGIRLKDFPLDWSTDLNDKVLMFTTEAPQRSHKVSHHIFHTFDELEPSIIKTLSLRYNHIYTIGPLQLLLDQIPEEKKQTGITSLHGYSLVKEEPECFQWLQSKEPNSVVYVNFGSTTVMSLEDMTEFGWGLANSNHYFLWIIRSNLVIGENAVLPPELEEHIKKRGFIASWCSQEKVLKHPSVGGFLTHCGWGSTIESLSAGVPMICWPYSWDQLTNCRYICKEWEVGLEMGTKVKRDEVKRLVQELMGEGGHKMRNKAKDWKEKARIAIAPNGSSSLNIDKMVKEITVLARN | No | Yes |

test system: steviol glycoside; assay: steviol glycoside bioconversion by E. coli expressing individual mutations of UGT SEQ ID NO: 15; type: cell-based; settings: fold improvement of % conversion vs parent UGT SEQ ID NO: 15; stevia leaf extract and glucose fed; 37° C., 48 hr
Procedure: Fold improvement is with respect to % steviol glycoside conversion of the parent UGT enzyme of SEQ ID NO: 15. SEQ ID NO: 16 has the following mutations from SEQ ID NO: 15: M152A, S153A. Stevia leaf extract and glucose were fed to the bioconversion strains. Bioconversion took place at 37° C. for 48 hr. Data were quantified by reverse phase LC DAD to quantify conversion of steviol glycosides.
Fold improvement (FI) is with respect to % steviol glycoside conversion.

| Molecule | FI % Stevioside −> rebE | FI % rebA −> rebD |
| --- | --- | --- |
| G96M: mutation to UGT enzyme of SEQ ID NO: 15 (protein) MARRTKNSSGMSLAERFWLTLSRSSLVVGRSCVEFEPETVPLLSTLRGKPITFLGLMPPLPEGRREDGEDATVRWLDAQPAKSVVYVALGSEVPLMVEKVHELALGLELAGTRFLWALRKPTGVSDADLLPAGFEERTRGRGVVATRWVPQMSILAHAAVGAFLTHCGWNSTIEGLMFGHPLIMLPITGDQGPNARLIEAKNAGLQVARNDGDGSFDREGVAAAIRAVAVEEESSKVFQEKAKKLQEIVADMACHERYIDGFIQQLRSYKDDSGYSSSYAAAAGMHVVICPWLAFGHLLPCLDLAQRLASRGHRVSFVSTPRNISRLPPVRPALAPLVAFVALPLPRVEGLPDGAESTNDVPHDRPDMVELHRRAFDGLAAPFSEFLGTACADWVIVDSFHHWAAAAALEHKVPCAMMFLGSAEMIASIADERLEHAETESPAAAGQGRPAAAPTFEVARMKLIR | 1.03 and 1.10 | 1.01 and 1.10 |
| S125V: mutation to UGT enzyme of SEQ ID NO: 15 (protein) MARRTKNSSGMSLAERFWLTLSRSSLVVGRSCVEFEPETVPLLSTLRGKPITFLGLMPPLPEGRREDGEDATVRWLDAQPAKSVVYVALGSEVPLGVEKVHELALGLELAGTRFLWALRKPTGVVDADLLPAGFEERTRGRGVVATRWVPQMSILAHAAVGAFLTHCGWNSTIEGLMFGHPLIMLPITGDQGPNARLIEAKNAGLQVARNDGDGSFDREGVAAAIRAVAVEEESSKVFQEKAKKLQEIVADMACHERYIDGFIQQLRSYKDDSGYSSSYAAAAGMHVVICPWLAFGHLLPCLDLAQRLASRGHRVSFVSTPRNISRLPPVRPALAPLVAFVALPLPRVEGLPDGAESTNDVPHDRPDMVELHRRAFDGLAAPFSEFLGTACADWVIVDSFHHWAAAAALEHKVPCAMMFLGSAEMIASIADERLEHAETESPAAAGQGRPAAAPTFEVARMKLIR | 1.16 | 1.13 |
| L298F: mutation to UGT enzyme of SEQ ID NO: 15 (protein) MARRTKNSSGMSLAERFWLTLSRSSLVVGRSCVEFEPETVPLLSTLRGKPITFLGLMPPLPEGRREDGEDATVRWLDAQPAKSVVYVALGSEVPLGVEKVHELALGLELAGTRFLWALRKPTGVSDADLLPAGFEERTRGRGVVATRWVPQMSILAHAAVGAFLTHCGWNSTIEGLMFGHPLIMLPITGDQGPNARLIEAKNAGLQVARNDGDGSFDREGVAAAIRAVAVEEESSKVFQEKAKKLQEIVADMACHERYIDGFIQQLRSYKDDSGYSSSYAAAAGMHVVICPWLAFGHFLPCLDLAQRLASRGHRVSFVSTPRNISRLPPVRPALAPLVAFVALPLPRVEGLPDGAESTNDVPHDRPDMVELHRRAFDGLAAPFSEFLGTACADWVIVDSFHHWAAAAALEHKVPCAMMFLGSAEMIASIADERLEHAETESPAAAGQGRPAAAPTFEVARMKLIR | 1.01 | 0.97 |
| M152A_S153A: SEQ ID NO: 15 with mutations M152A, S153A (protein) MARRTKNSSGMSLAERFWLTLSRSSLVVGRSCVEFEPETVPLLSTLRGKPITFLGLMPPLPEGRREDGEDATVRWLDAQPAKSVVYVALGSEVPLGVEKVHELALGLELAGTRFLWALRKPTGVSDADLLPAGFEERTRGRGVVATRWVPQAAILAHAAVGAFLTHCGWNSTIEGLMFGHPLIMLPITGDQGPNARLIEAKNAGLQVARNDGDGSFDREGVAAAIRAVAVEEESSKVFQEKAKKLQEIVADMACHERYIDGFIQQLRSYKDDSGYSSSYAAAAGMHVVICPWLAFGHLLPCLDLAQRLASRGHRVSFVSTPRNISRLPPVRPALAPLVAFVALPLPRVEGLPDGAESTNDVPHDRPDMVELHRRAFDGLAAPFSEFLGTACADWVIVDSFHHWAAAAALEHKVPCAMMFLGSAEMIASIADERLEHAETESPAAAGQGRPAAAPTFEVARMKLIR | 1.32 | 1.26 |
| H402W: mutation to UGT enzyme of SEQ ID NO: 15 (protein) MARRTKNSSGMSLAERFWLTLSRSSLVVGRSCVEFEPETVPLLSTLRGKPITFLGLMPPLPEGRREDGEDATVRWLDAQPAKSVVYVALGSEVPLGVEKVHELALGLELAGTRFLWALRKPTGVSDADLLPAGFEERTRGRGVVATRWVPQMSILAHAAVGAFLTHCGWNSTIEGLMFGHPLIMLPITGDQGPNARLIEAKNAGLQVARNDGDGSFDREGVAAAIRAVAVEEESSKVFQEKAKKLQEIVADMACHERYIDGFIQQLRSYKDDSGYSSSYAAAAGMHVVICPWLAFGHLLPCLDLAQRLASRGHRVSFVSTPRNISRLPPVRPALAPLVAFVALPLPRVEGLPDGAESTNDVPHDRPDMVELHRRAFDGLAAPFSEFLGTACADWVIVDSFHWWAAAAALEHKVPCAMMFLGSAEMIASIADERLEHAETESPAAAGQGRPAAAPTFEVARMKLIR | 1.07 | 1.09 |
| P442D: mutation to UGT enzyme of SEQ ID NO: 15 (protein) MARRTKNSSGMSLAERFWLTLSRSSLVVGRSCVEFEPETVPLLSTLRGKPITFLGLMPPLPEGRREDGEDATVRWLDAQPAKSVVYVALGSEVPLGVEKVHELALGLELAGTRFLWALRKPTGVSDADLLPAGFEERTRGRGVVATRWVPQMSILAHAAVGAFLTHCGWNSTIEGLMFGHPLIMLPITGDQGPNARLIEAKNAGLQVARNDGDGSFDREGVAAAIRAVAVEEESSKVFQEKAKKLQEIVADMACHERYIDGFIQQLRSYKDDSGYSSSYAAAAGMHVVICPWLAFGHLLPCLDLAQRLASRGHRVSFVSTPRNISRLPPVRPALAPLVAFVALPLPRVEGLPDGAESTNDVPHDRPDMVELHRRAFDGLAAPFSEFLGTACADWVIVDSFHHWAAAAALEHKVPCAMMFLGSAEMIASIADERLEHAETESDAAAGQGRPAAAPTFEVARMKLIR | 1.18 | 1.19 |
